Target: T1, GST-CK1δ (human, UniProt P48730-2 1-409)
T1 sequence: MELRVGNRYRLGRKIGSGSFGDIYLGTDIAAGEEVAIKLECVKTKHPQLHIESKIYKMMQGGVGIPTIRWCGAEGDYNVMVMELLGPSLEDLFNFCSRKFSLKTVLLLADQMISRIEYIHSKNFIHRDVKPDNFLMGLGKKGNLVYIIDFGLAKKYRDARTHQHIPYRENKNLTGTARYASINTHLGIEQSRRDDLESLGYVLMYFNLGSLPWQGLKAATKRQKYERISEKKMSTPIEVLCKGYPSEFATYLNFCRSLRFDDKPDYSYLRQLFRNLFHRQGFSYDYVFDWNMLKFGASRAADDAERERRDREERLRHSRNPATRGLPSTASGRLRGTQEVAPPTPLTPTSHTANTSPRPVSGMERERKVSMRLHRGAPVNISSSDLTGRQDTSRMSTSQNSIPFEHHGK
Experiment: pull-down

B1: His-USP46 (enzyme)
chain: MTVRNIASICNMGTNASALEKDIGPEQFPINEHYFGLVNFGNTCYCNSVLQALYFCRPFRENVLAYKAQQKKKENLLTCLADLFHSIATQKKKVGVIPPKKFISRLRKENDLFDNYMQQDAHEFLNYLLNTIADILQEEKKQEKQNGKLKNGNMNEPAENNKPELTWVHEIFQGTLTNETRCLNCETVSSKDEDFLDLSVDVEQNTSITHCLRDFSNTETLCSEQKYYCETCCSKQEAQKRMRVKKLPMILALHLKRFKYMEQLHRYTKLSYRVVFPLELRLFNTSSDAVNLDRMYDLVAVVVHCGSGPNRGHYITIVKSHGFWLLFDDDIVEKIDAQAIEEFYGLTSDISKNSESGYILFYQSRE
B1: binds.

Reference: PMC11582648 (Nature Communications, 2024)
